Numbering of substitutions follows the chain as printed.
T1: 人OX40 expressed on cells (表达OX40的CHO细胞; OX40过表达的功能细胞系) (human, UniProt P43489 29-277)
T1 construct: whole, on cells; also called CD134; TNFRSF4
T1 sequence (looked up): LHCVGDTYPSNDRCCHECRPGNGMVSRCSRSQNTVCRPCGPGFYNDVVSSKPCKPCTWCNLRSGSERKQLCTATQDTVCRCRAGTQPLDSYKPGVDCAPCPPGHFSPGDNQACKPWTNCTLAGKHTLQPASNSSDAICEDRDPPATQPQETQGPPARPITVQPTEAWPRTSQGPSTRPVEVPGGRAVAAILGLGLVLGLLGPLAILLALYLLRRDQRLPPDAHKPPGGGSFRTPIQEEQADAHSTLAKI

B1: 51E2G12D6 (antibody, V domains shown)
VH: QVTLKESGPGILQPSQTLSLTCSFSGFSLDTSGMGVTWIRQPSGKGLEWLAHIYWDDDKHYNPSLKSRLTISKDTSSTQVLLKITSVVTADTATYYCARRALGAMDYWGQGTSVTVSS
VL: DIQMTQTTSSLSASLGDRVTISCRASQDISHYLNWYQQKPDGTVKLLIYYTSTLHSGVPSRFSGSGSGTDYSLTISNLEQEDIATYFCQQGKTLPPTFGAGTELELK
B2: 99A2A8D4E8 (antibody, V domains shown)
VH: QIQLVQSGPELKKPGETVKISCKASGYTFTDYSMHWVKQAPGKGLKWMGWISTETGEPTYADDFKGRFAFSLETSASTAYLQIKNLKNEDTASYFCARVRPWYLAVWGAGTTVTVSS
VL: B1 VL with H31N, T53R, H55Y, T69A, I75V, G91A, K92N, P96L, E103K
B3: 17B12G2C3 (antibody, V domains shown)
VH: EVQLQQSGPELVKPGASVKISCKASGYTFTDYYMNWVKQSHGKSLEWIGDINPNNGGTNYNQKFKGKATLTVDKSSSTTYMELRSLTSEDSAVYYCARSGGWLLQDYWGQGTTLTVSS
VL: B1 VL with S22T, Q27L, H31N, L46F, T53R, K92N, P96Y, A100G, E103K, L106I
B4: 68G8C4B12 (antibody, V domains shown)
VH: QVQLKESGPGLVAPSQSLSITCTVSGFSLTNYGVHWVRQPPGKGLEWLGVIWDDGNTNYNSALMSRLSINKDNSKSQVFVTMNSLQIDDTAMYYCALFDGYYGWFAYWGQGTLVTVSS
VL: B1 VL with H31F, T53R, I83F, K92H, P96W, A100G, T102S, E103K, L106I
B5: 83C2H3B6 (antibody, V domains shown)
VH: QVQLKQSGPGLVQPSQSLSITCTVSGFSLTSYGVHWVRQSPGKGLEWLGVIWSGGSTDYNAAYISRLSISKDNSKSQVFFKMNSLQADDTATYYCANYDYDVPYWGQGTLVTVSA
VL: DIQMTQSPASQSASLGESVTITCLASQTIGTWLAWYQQKPGKSPQLLIYAATSLADGVPSRFSGSGSGTKFSFKISSLQAEDFVSYYCQQLYSTPFTFGSGTKLEIK
B6: 9G4C8B11 (antibody, V domains shown)
VH: DVQLQESGPGLVKPSQSLSLTCSVTGYSITSGYYWNWIRQFPGNKLEWMGYISYDGSNNYNPSLKNRISITRDTSKNQFFLKLNSVTTEDTATYYCARDRAYYSNYVGWYFDVWGTGTTVTVSS
VL: DIVLTQSPASLAVSLGQRATISCRASESVDNYGNSFMHWYQQTPGQPPKLLIYRASNLESGIPAKFSGSGSRTDFTLTINPVEADDVATYYCQQSNEDPLTFGAGTKLELK
B7: OX40L (ligand, UniProt P23510 51-183, looked up)
chain: QVSHRYPRIQSIKVQFTEYKKEKGFILTSQKEDEIMKVQNNSVIINCDGFYLISLKGYFSQEVNISLHYQKDEEPLFQLKKVRSVNSLMVASLTYKDKVYLNVTTDNTSLDDFHVNGGELILIHQNPGEFCVL

Biological target: T1, 人OX40 expressed on cells (表达OX40的CHO细胞; …)
Assay: flow cytometry on OX40-expressing CHO cells, 5 μg/ml antibody

| 结合信号值 relative to control sample (fold) | Binder |
| --- | --- |
| 200 fold | B1 |
| 200 fold | B2 |
| 200 fold | B3 |
| 200 fold | B4 |
| 200 fold | B5 |
| 200 fold | B6 |

Biological target: T1, 人OX40 expressed on cells (表达OX40的CHO细胞; …)
Assay: cell-based or functional assay

| inhibition of IL-8 secretion by OX40 over-expressing functional cell line, IC50 | IL-8 secretion by OX40 over-expressing functional cell line (activation), EC50 | inhibition of IL-8 secretion by OX40 over-expressing functional cell line, given as EC50 | Binder |
| --- | --- | --- | --- |
| 1.45 nM | – | – | B1 |
| – | 0.58 nM | – | B2 |
| 8.23 nM | – | – | B3 |
| – | – | 2.36 nM | B4 |
| – | 2.18 nM | – | B7 |
| 68 nM | – | – | B5 |
| – | 6.5 nM | – | B6 |
